Results published in patent publication US20140274782A1, “AFFINITY REAGENTS AND METHODS FOR DETECTION, PURIFICATION, AND PROTEOMIC ANALYSIS OF METHYLATED PROTEINS” (The Board of Trustees of the Leland Stanford Junior …, priority 2013, published 2014).

T1: G9a and GLP (Homo sapiens, UniProt Q96KQ7+Q9H9B1)
T1 sequence (Q96KQ7 2-1210 limits assumed): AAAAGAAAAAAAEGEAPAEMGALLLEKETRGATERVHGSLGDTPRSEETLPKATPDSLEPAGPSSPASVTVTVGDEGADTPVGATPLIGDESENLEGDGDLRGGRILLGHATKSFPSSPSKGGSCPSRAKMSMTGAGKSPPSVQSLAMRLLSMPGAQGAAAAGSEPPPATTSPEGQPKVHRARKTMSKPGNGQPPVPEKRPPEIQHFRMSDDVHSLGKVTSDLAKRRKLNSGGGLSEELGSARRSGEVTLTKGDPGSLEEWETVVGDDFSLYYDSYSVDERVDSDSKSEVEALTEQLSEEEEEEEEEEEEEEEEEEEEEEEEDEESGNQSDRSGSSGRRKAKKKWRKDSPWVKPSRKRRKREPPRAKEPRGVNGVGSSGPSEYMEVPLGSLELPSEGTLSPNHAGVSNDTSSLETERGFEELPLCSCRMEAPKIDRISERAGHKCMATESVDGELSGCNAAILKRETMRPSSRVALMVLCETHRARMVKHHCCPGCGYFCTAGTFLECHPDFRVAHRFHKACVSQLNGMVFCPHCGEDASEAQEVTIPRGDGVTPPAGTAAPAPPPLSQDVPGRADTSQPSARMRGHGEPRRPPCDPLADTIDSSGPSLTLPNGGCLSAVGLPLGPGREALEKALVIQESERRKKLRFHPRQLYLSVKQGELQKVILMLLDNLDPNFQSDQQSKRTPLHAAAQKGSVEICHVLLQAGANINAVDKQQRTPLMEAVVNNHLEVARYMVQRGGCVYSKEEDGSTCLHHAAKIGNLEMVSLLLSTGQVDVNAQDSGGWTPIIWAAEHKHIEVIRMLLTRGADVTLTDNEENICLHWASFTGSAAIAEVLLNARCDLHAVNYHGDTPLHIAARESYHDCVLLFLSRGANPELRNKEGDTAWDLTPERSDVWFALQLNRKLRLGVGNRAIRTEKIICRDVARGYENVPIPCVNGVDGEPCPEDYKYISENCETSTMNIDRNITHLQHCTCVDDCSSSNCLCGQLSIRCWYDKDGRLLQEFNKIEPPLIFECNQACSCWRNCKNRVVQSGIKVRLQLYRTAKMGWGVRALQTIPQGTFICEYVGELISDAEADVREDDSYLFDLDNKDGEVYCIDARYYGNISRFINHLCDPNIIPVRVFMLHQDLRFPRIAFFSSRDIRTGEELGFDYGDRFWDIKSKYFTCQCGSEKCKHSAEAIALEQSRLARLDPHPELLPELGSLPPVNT
T1 sequence (Q9H9B1 2-1298 limits assumed): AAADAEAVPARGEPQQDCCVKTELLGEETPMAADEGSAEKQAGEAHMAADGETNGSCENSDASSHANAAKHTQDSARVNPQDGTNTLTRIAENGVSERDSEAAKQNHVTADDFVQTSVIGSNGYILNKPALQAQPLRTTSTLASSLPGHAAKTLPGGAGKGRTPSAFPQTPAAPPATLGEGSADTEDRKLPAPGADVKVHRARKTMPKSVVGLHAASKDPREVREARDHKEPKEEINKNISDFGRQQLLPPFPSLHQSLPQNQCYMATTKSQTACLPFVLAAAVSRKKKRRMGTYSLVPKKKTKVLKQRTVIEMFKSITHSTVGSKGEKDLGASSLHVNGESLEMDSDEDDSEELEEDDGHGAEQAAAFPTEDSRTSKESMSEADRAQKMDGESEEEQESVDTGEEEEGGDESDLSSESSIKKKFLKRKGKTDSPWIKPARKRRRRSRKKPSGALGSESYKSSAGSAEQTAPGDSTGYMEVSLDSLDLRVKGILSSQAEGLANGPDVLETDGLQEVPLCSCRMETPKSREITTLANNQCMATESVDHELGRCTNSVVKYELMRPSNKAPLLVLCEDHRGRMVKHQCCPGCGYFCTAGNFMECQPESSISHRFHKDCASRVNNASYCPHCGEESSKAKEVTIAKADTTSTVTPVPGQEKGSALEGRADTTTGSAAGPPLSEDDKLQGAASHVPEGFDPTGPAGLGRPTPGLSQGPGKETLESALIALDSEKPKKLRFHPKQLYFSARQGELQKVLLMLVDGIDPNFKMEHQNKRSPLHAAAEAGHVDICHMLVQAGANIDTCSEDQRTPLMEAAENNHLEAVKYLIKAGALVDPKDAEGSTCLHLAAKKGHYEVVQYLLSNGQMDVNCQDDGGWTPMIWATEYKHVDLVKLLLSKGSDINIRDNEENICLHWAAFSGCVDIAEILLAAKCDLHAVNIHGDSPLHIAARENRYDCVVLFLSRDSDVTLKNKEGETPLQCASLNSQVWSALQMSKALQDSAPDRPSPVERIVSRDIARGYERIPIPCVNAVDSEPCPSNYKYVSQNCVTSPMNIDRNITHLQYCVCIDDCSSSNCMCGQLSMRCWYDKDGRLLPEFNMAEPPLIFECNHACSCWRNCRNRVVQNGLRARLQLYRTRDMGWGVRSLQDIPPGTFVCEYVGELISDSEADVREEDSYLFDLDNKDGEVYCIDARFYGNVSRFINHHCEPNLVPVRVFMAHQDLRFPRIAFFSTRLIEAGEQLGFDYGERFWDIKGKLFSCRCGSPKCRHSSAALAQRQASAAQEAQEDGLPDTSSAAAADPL

B1: MCM3 (protein, UniProt P25205 2-808, looked up)
DNA replication licensing …: AGTVVLDDVELREAQRDYLDFLDDEEDQGIYQSKVRELISDNQYRLIVNVNDLRRKNEKRANRLLNNAFEELVAFQRALKDFVASIDATYAKQYEEFYVGLEGSFGSKHVSPRTLTSCFLSCVVCVEGIVTKCSLVRPKVVRSVHYCPATKKTIERRYSDLTTLVAFPSSSVYPTKDEENNPLETEYGLSVYKDHQTITIQEMPEKAPAGQLPRSVDVILDDDLVDKAKPGDRVQVVGTYRCLPGKKGGYTSGTFRTVLIACNVKQMSKDAQPSFSAEDIAKIKKFSKTRSKDIFDQLAKSLAPSIHGHDYVKKAILCLLLGGVERDLENGSHIRGDINILLIGDPSVAKSQLLRYVLCTAPRAIPTTGRGSSGVGLTAAVTTDQETGERRLEAGAMVLADRGVVCIDEFDKMSDMDRTAIHEVMEQGRVTIAKAGIHARLNARCSVLAAANPVYGRYDQYKTPMENIGLQDSLLSRFDLLFIMLDQMDPEQDREISDHVLRMHRYRAPGEQDGDAMPLGSAVDILATDDPNFSQEDQQDTQIYEKHDNLLHGTKKKKEKMVSAAFMKKYIHVAKIIKPVLTQESATYIAEEYSRLRSQDSMSSDTARTSPVTARTLETLIRLATAHAKARMSKTVDLQDAEEAVELVQYAYFKKVLEKEKKRKKRSEDESETEDEEEKSQEDQEQKRKRRKTRQPDAKDGDSYDPYDFSDTEEEMPQVHTPKTADSQETKESQKVELSESRLKAFKVALLDVFREAHAQSIGMNRLTESINRDSEEPFSSVEIQAALSKMQDDNQVMVSEGIIFLI
B2: SF3B3 (protein, UniProt Q15393 1-1217, looked up)
Splicing factor 3B subunit 3: MFLYNLTLQRATGISFAIHGNFSGTKQQEIVVSRGKILELLRPDPNTGKVHTLLTVEVFGVIRSLMAFRLTGGTKDYIVVGSDSGRIVILEYQPSKNMFEKIHQETFGKSGCRRIVPGQFLAVDPKGRAVMISAIEKQKLVYILNRDAAARLTISSPLEAHKANTLVYHVVGVDVGFENPMFACLEMDYEEADNDPTGEAAANTQQTLTFYELDLGLNHVVRKYSEPLEEHGNFLITVPGGSDGPSGVLICSENYITYKNFGDQPDIRCPIPRRRNDLDDPERGMIFVCSATHKTKSMFFFLAQTEQGDIFKITLETDEDMVTEIRLKYFDTVPVAAAMCVLKTGFLFVASEFGNHYLYQIAHLGDDDEEPEFSSAMPLEEGDTFFFQPRPLKNLVLVDELDSLSPILFCQIADLANEDTPQLYVACGRGPRSSLRVLRHGLEVSEMAVSELPGNPNAVWTVRRHIEDEFDAYIIVSFVNATLVLSIGETVEEVTDSGFLGTTPTLSCSLLGDDALVQVYPDGIRHIRADKRVNEWKTPGKKTIVKCAVNQRQVVIALTGGELVYFEMDPSGQLNEYTERKEMSADVVCMSLANVPPGEQRSRFLAVGLVDNTVRIISLDPSDCLQPLSMQALPAQPESLCIVEMGGTEKQDELGERGSIGFLYLNIGLQNGVLLRTVLDPVTGDLSDTRTRYLGSRPVKLFRVRMQGQEAVLAMSSRSWLSYSYQSRFHLTPLSYETLEFASGFASEQCPEGIVAISTNTLRILALEKLGAVFNQVAFPLQYTPRKFVIHPESNNLIIIETDHNAYTEATKAQRKQQMAEEMVEAAGEDERELAAEMAAAFLNENLPESIFGAPKAGNGQWASVIRVMNPIQGNTLDLVQLEQNEAAFSVAVCRFSNTGEDWYVLVGVAKDLILNPRSVAGGFVYTYKLVNNGEKLEFLHKTPVEEVPAAIAPFQGRVLIGVGKLLRVYDLGKKKLLRKCENKHIANYISGIQTIGHRVIVSDVQESFIWVRYKRNENQLIIFADDTYPRWVTTASLLDYDTVAGADKFGNICVVRLPPNTNDEVDEDPTGNKALWDRGLLNGASQKAEVIMNYHVGETVLSLQKTTLIPGGSESLVYTTLSGGIGILVPFTSHEDHDFFQHVEMHLRSEHPPLCGRDHLSFRSYYFPVKNVIDGDLCEQFNSMEPNKQKNVSEELDRTPPEVSKKLEDIRTRYAF

Tests used:
[1] = test system: 3×MBT domain of L3MBTL1; experiment: Triple SILAC pull-down, 3xMBT/3xMBTD355N ratio (cytoplasmic, nuclear and chromatin fractions of 293T cells); type: binding, human; conditions: SILAC ratio, pull-down 3xMBT vs 3xMBTD355N; for 3xMBT/D355N UNC Heavy: experiment with UNC0638 in heavy SILAC media; for 3xMBT/D355N UNC Light: experiment with UNC0638 in light SILAC media;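 as to all read-outs here: proteins quantified with MaxQuant, requiring at least two unique peptides and quantification in both label directions, normalized to the mean of proteins from a digested loading control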
[2] = molecular target: T1, G9a and GLP; experiment: Triple SILAC pull-down after UNC0638 treatment of 293T cells, DMSO/UNC0638 ratio of protein captured by 3×MBT; type: cell-based; set-up: cells were treated for 24 hours with UNC0638 at 2.5 μM or DMSO vehicle control; endogenous in cells; host or cells: HEK 293T; conditions: for Relative to UNC0638 UNC Heavy / Relative to UNC0638 UNC Light: SILAC ratio DMSO/UNC0638 of protein pulled down with 3xMBT; for Relative to UNC0638 UNC Heavy: UNC0638 in heavy SILAC media; for Relative to UNC0638 UNC Light: UNC0638 in light SILAC media; for Relative to UNC0638 Average: average of UNC Light and UNC Heavy experiments;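 as to all read-outs here: mass spectrometry (Q-Exactive) SILAC quantitation, DMSO/UNC0638 ratio computed after subtracting 3×MBTD355N mutant pull-down background, only proteins with at least twofold 3×MBT over mutant signal considered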

Molecule	3xMBT/D355N UNC Heavy [1]	3xMBT/D355N UNC Light [1]	Relative to UNC0638 UNC Heavy [2]	Relative to UNC0638 UNC Light [2]	Relative to UNC0638 Average [2]
B1	2.59 log base 2	2.49 log base 2	0.28 log base 2	0.09 log base 2	0.18 log base 2
B2	2.48 log base 2	2.08 log base 2	0.06 log base 2	0.31 log base 2	0.18 log base 2
